# In the supplement of paper PMC10567573:
# ± gives the standard deviation.
# Experiment: protein stability index of a GFP-peptide fusion (GPS, HEK-293T) (PSI 1-6); higher = more stable
# [1] = treatment: DMSO, c terminus: a fixed tail appended
# [2] = treatment: MLN4924 1 uM, 8 h, c terminus: a fixed tail appended
# 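Further: 24-mer peptide tiles fused after GFP, lentivirally expressed, FACS-sorted into six equal bins by GFP/DsRed ratio, decoded by Illumina sequencing, PSI is the read-weighted mean bin number.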
Sequence,protein stability index [1],protein stability index [2],"protein stability index (treatment: DMSO, c terminus: native)","protein stability index (treatment: MLN4924 1 uM, 8 h, c terminus: native)"
QSCWAFLPDLCLCRVFWWLGDRDR [FBXO39],2.2 ± 0.35,2.27 ± 0.36,–,–
HSEGRVEVYYDGQWGTVCDDDFSI [LOXL2],3.23 ± 0.33,3.56 ± 0.33,–,–
RRGWRPSSREDSLEAGLPLQVRGY [CHGA],3.42 ± 0.47,3.8 ± 0.27,–,–
ERVYSLQHLDPQGAQELLEFTIRD [INTS4],3.74 ± 0.42,3.69 ± 0.31,–,–
IDEQDSYIQSRADTMQNIESTIVE [STX5],5.23 ± 0.31,5.14 ± 0.12,–,–
EHGYENMNHFTVNLNREEKIIREI [TRIM55],3.64 ± 0.19,3.85 ± 0.27,–,–
RAWSQCGGGGLRAWSQRSAAGRVC [CPOX],2.71 ± 0.077,2.88 ± 0.37,–,–
LTNNVDLDNTKKKMEIYQKENKDV [MNAT1],5.34 ± 0.3,5.31 ± 0.19,–,–
VSTMRCKTRQKSEKQMEEKRRANQ [PPEF2],4.41 ± 0.7,4.79 ± 0.24,–,–
YLLDYPNNLLSAPPPDVTQLTPPS [ANKRD17],3.23 ± 0.14,3.44 ± 0.2,–,–
LKPLLSPSSETTVTVELPEADRAG [LYSMD4],5.04 ± 0.23,5.07 ± 0.28,–,–
LLMTSGVVLCEGVKWLSFHSGYDF [CNOT7],3.33 ± 0.37,2.9 ± 0.39,–,–
TCIDMDWKVLTWLRYTLWIPLYPL [HACD3],3.08 ± 0.28,3.29 ± 0.5,–,–
GSEENGRYFSLSLMSGALAVNQKI [PCDHGC5],2.49 ± 0.2,2.6 ± 0.23,–,–
QIEKKEKKLHKIQNKAQRQKDLIM [TAF7L],3.64 ± 0.32,3.85 ± 0.28,–,–
FGAAGVNRLSIGLQSLDDTELRLL [RSAD1],2.8 ± 0.094,2.76 ± 0.54,–,–
NILIYETPRGPDPALLEATGGAAG [KCTD13],3.88 ± 0.19,3.84 ± 0.45,–,–

Sequence,protein stability index [1],protein stability index [2],"protein stability index (treatment: DMSO, c terminus: native)","protein stability index (treatment: MLN4924 1 uM, 8 h, c terminus: native)"
KHLARQLEEKDRVLKKQDAFYKEQ [CHCHD3],4.33 ± 0.2,4.57 ± 0.24,–,–
VKKSCWTEEEDRIICEAHKVLGNR [MYBL2],3.33 ± 0.52,3.58 ± 0.34,–,–
QDIDLGAGREVFDYSHRQKEQDVE [NFE2L1],–,5.05 ± 0.84,–,–
TRLLLQFTQPQQTSFALERNLRTQ [C8orf76],2.33 ± 0.46,2.52 ± 0.27,–,–
QRFHEICSNLVKTRRRAVGWWKRL [ARL6IP1],2.22 ± 0.41,2.55 ± 0.62,–,–
RAKVQPQARKKEMEMRQLQRGPA [CPN1],–,–,3.26 ± 0.43,3.11 ± 0.18
LGLYINFRHLYKQRRRRYGQKKKK [HACD3],2.37 ± 0.22,2.61 ± 0.34,–,–
HGTKNVTNSSSLRLPRQNSDGGQK [WSB1],4.96 ± 0.2,4.87 ± 0.47,–,–
GAYSSASSFSRPLGYPYVNSVSSH [DLX1],3.1 ± 0.15,3.12 ± 0.25,–,–
TGGLGGERERQPCGDGNTETHRAP [SOAT2],5.37 ± 0.15,5.31 ± 0.19,–,–
RGGMLSASAETLPAGFRVSTLGTL [PPFIA4],3.26 ± 0.14,3.57 ± 0.49,–,–
ITIEPGTSYRLQGLKPNSLYYFRL [PTPRD],2.63 ± 0.12,2.61 ± 0.43,–,–
FNSILPGVLILFLTFFAFLHCWLN [SOAT1],2.22 ± 0.63,2.29 ± 0.36,–,–
VVKLENGEIETIARFGSGPCKTRD [APMAP],3.77 ± 0.16,3.72 ± 0.31,–,–
WEEEEDHEKERPEHKSLESLADGG [FANCE],5.46 ± 0.34,5.53 ± 0.19,–,–
SMEGVRWAFSCGTWLPSRAEWLLA [AASDHPPT],2.65 ± 0.57,2.79 ± 0.52,–,–
